Reference: paper PMC8807840

Key:
[1] = biological target: A3Gctd-CBE (A3Gctd-nCas9-2xUGI)
[2] = biological target: A3Bctd-CBE (A3Bctd-nCas9-2xUGI)
[3] = biological target: A3A-CBE (A3A-nCas9-2xUGI)

B1: Ade1 (EBV-BORF2) (natural protein)
chain: MATTSHVEHELLSKLIDELKVKANSDPEADVLAGRLLHRLKAESVTHTVAEYLEVFSDKFYDEEFFQMHRDELETRVSAFAQSPAYERIVSSGYLSALRYYDTYLYVGRSGKQESVQHFYMRLAGFCASTTCLYAGLRAALQRARPEIESDMEVFDYYFEHLTSQTVCCSTPFMRFAGVENSTLASCILTTPDLSSEWDVTQALYRHLGRYLFQRAGVGVGVTGAGQDGKHISLLMRMINSHVEYHNYGCKRPVSVAAYMEPWHSQIFKFLETKLPENHERCPGIFTGLFVPELFFKLFRDTPWSDWYLFDPKDAGDLERLYGEEFEREYYRLVTAGKFCGRVSIKSLMFSIVNCAVKAGSPFILLKEACNAHFWRDLQGEAMNAANLCAEVLQPSRKSVATCNLANICLPRCLVNAPLAVRAQRADTQGDELLLALPRLSVTLPGEGAVGDGFSLARLRDATQCATFVVACSILQGSPTYDSRDMASMGLGVQGLADVFADLGWQYTDPPSRSLNKEIFEHMYFTALCTSSLIGLHTRKIFPGFKQSKYAGGWFHWHDWAGTDLSIPREIWSRLSERIVRDGLFNSQFIALMPTSGCAQVTGCSDAFYPFYANASTKVTNKEEALRPNRSFWRHVRLDDREALNLVGGRVSCLPEALRQRYLRFQTAFDYNQEDLIQMSRDRAPFVDQSQSHSLFLREEDAARASTLANLLVRSYELGLKTIMYYCRIEKAADLGVMECKASAALSVPREEQNERSPAEQMPPRPMEPAQVAGPVDIMSKGPGEGPGGWCVPGGLEVCYKYRQLFSEDDLLETDGFTERACESCQ
[1]
  fold inhibition of base editing by Ade1 at the FANCF site, HEK293T cells (Fig. 2e): 0.96 fold
A3Bctd-L7G CBE chimera
  fold inhibition of base editing by Ade1 at the FANCF site, HEK293T cells (Fig. 2e): 1.06 fold
A3Bctd-L1A CBE chimera
  fold inhibition of base editing by Ade1 at the FANCF site, HEK293T cells (Fig. 2e): 1.47 fold
[2]
  fold inhibition of base editing by Ade1 at the FANCF site, HEK293T cells (Fig. 2e): 5.2 fold
A3Gctd-L1L7B CBE chimera
  fold inhibition of base editing by Ade1 at the FANCF site, HEK293T cells (Fig. 2e): 5.66 fold
A3Gctd-L7B CBE chimera
  fold inhibition of base editing by Ade1 at the FANCF site, HEK293T cells (Fig. 2e): 1.32 fold
[3]
  fold inhibition of base editing by Ade1 at the FANCF site, HEK293T cells (Fig. 2e): 1.06 fold
A3Gctd-L1B CBE chimera
  fold inhibition of base editing by Ade1 at the FANCF site, HEK293T cells (Fig. 2e): 5.67 fold
A3A-L1B CBE chimera
  fold inhibition of base editing by Ade1 at the FANCF site, HEK293T cells (Fig. 2e): 3.26 fold
